According to US12514920B1, “Respiratory syncytial virus mRNA vaccine, and preparation method therefor and use thereof” (Hangzhou Tianlong Pharmaceutical Co., Ltd., priority 2024, dated 2026):
Residue numbers refer to the chain shown, from its start.

B1: YK-RSV-048 (protein)
chain: QNITEEFYQSTCSAVSKGYLGALRTGWYTSVITIELSNIKENKCNGTDAKVKLIKQELDKYKNAVTDLQLLMQSTPATGSGSFLGFLCGVGSAIASGVAVSKVLHLEGEVNKIKSALLSTNKAVVSLSNGVSVLTFKVLDLKNYIDKQLLPILNKQSCSIPNIETVIEFQQKNNRLLEITREFSVNAGVTTPVSTYMLTNSELLSLINDMPITNDQKKLMSNNVQIVRQQSYSIMSIIKEEVLAYVVQLPLYGVIDTPCWKLHTSPLCTTNTKEGSNICLTRTDRGWYCDNAGSVSFFPQAETCKVQSNRVFCDTMCSRTLPSEVNLCNVDIFNPKYDCKIMTSKTDVSSSVITSLGAIVSCYGKTKCTASNKNRGIIKTFSNGCDYVSNKGVDTVSVGNTLYYVNKQEGQSLYVKGEPIINFYDPLVFPSDEFDASISQVNEKINQSLAFIRKSDELLHNVNAGKSTTNIMITTIIIVIIVILLSLIAVGLLLY
B2: YK-RSV-050 (protein)
chain: B1 chain with L87C, C88L
B3: YK-RSV-009 (protein)
chain: QNITEEFYCSTCSAVSKGYLGALRTGWYTSVILIELSNIKENKCNGTDAKVKLIKQELDKYKNAVTDLQLLMQSTPATGSGSAIASGVAVSKVLHLEGEVNKIKSALLSTNKAVVSLSNGVSVLTFKVLDLKNYIDKQLLPIVNKQSCSIPNIETVIEFQQKNNRLLEITREFSVNAGVTTPVSTYMLTNSELLSLINDMPITNDQKKLMSNNVQIVRQQSYSIMSIIKEEVLAYVVQLPLYGVIDTPCWKLHTSPLCTTNTKEGSNICLTRTDRGWYCDNAGSVSFFPQAETCKVQSNRVFCDTMNSRTLPSEVNLCNVDIFNPKYDCKIMTSKTDVSSSVITSLGAIVSCYGKTKCTASNKNRGIIKTFSNGCDYVSNKGVDTVSVGNTLYYVNKQEGQSLYVKCEPIINFYDPLVFPSSEFDASISQVNEKINQSLAFIRKSDELLHNVNAGKSTTNIMITTIIIVIIVILLSLIAVGLLLY
B4: YK-RSV-055 (protein)
chain: B3 chain with C9Q, L33T, A83C, V143L, I228C, C407G, S422D
B5: YK-RSV-057 (protein)
chain: B3 chain with C9Q, L33T, A83C, V143L, I227C, C407G, S422D
B6: YK-RSV-010 (protein)
chain: B3 chain with C9Q, S30C, L124C, C407G
B7: YK-RSV-043 (protein)
chain: B3 chain with C9Q, L33T, T75C, S86C, V143L, C407G, S422D

test system: RSV pre-F antibody (3C12); assay: Binding of epitope Φ of RSV F antigen mutants by flow cytometry; conditions: flow cytometry; epitope Φ, antibody 3C12
In short: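 293T cells were transfected with mRNA-LNP (300 ng mRNA) encoding the RSV F mutants and harvested after 16 h. Cells were stained with fluorescent 3C12 (pre-F-specific epitope Φ) or 11A9 (epitope II, pre-F and post-F) for 2 h at 4 °C in the dark, then washed and read by flow cytometry on 1×10^4 cells per measurement.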

| Molecule | RSV pre-F antibody (3C12) Epitope Φ (%) binding rate |
| --- | --- |
| B1 | 89.6% |
| B2 | 86.5% |
| B3 | 87.4% |

same assay, conditions: ratio of epitope Φ (3C12) to epitope II (11A9) binding rate

| Molecule | Φ/II (%) |
| --- | --- |
| B1 | 94.2% |
| B2 | 93.0% |
| B3 | 93.9% |
| B4 | 97.0% |
| B5 | 97.1% |
| B6 | 97.3% |
| B7 | 95.3% |

test system: RSV pre-F antibody (3C12); assay: ELISA binding of RSV F antigen mutants, epitope Φ; conditions: ELISA; antibodies 3C12, 7H11, 7E11
Method: (§1) To investigate the binding of the RSV F antigen mutants to antibodies recognizing different epitopes, the binding amount was determined by an ELISA method in this example.
(§2) • 293T cells (purchased from ATCC cell bank); • Primary antibody: RSV pre-F antibody (3C12), epitope ([…] (Novoprotein, Cat. No.: DA101); • RSV pre-F antibody (7H11), epitope Quaternary (Novoprotein, Cat. No.: DA109); • RSV F antibody (11A9), epitope II (Novoprotein, Cat. No.: DA091); • RSV F antibody (4B9), epitope III (Novoprotein, Cat. No.: DA110); • RSV pre-F antibody (7E11), epitope V (Cat. No.: DA119); • Standard: RSV-pre-F trimer protein (Novoprotein, Cat. No.: DRA230); • Secondary antibody: peroxidase AffiniPure goat anti-human IgG (H+L) (Yeasen, Cat. No.: N/A); • Experimental group: mRNA vaccines after screening in Example 5;
(§3) Cell culture and transfection, and protein sample preparation: the experimental procedures were the same as in Example 3.
(§4) Detection of antigen expression by ELISA: the experimental procedures were the same as in Example 5.
(§5) In the present application, the binding of different mutant antigens to antibodies recognizing different epitopes was detected by ELISA, and the strength of the binding of the antigens to the antibodies was measured by the binding amount. (1) The RSV pre-F antibody (3C12) recognizing the epitope Φ binds only to the F protein in the pre-fusion conformation; (2) the RSV pre-F antibody (7H11) recognizes the epitope Quaternary (spanning both epitopes IV and V) and specifically binds to the F protein in the pre-fusion conformation; (3) the RSV F antibody (11A9) recognizing the epitope II can recognize both the pre-fusion and post-fusion conformations of the F protein; (4) the RSV F antibody […] recognizing the epitope III preferentially recognizes the pre-fusion conformation and has relatively weak binding activity for the post-fusion conformation; (5) the RSV pre-F antibody (7E11) recognizing the epitope V binds only to the F protein in the pre-fusion conformation.

| Molecule | binding of epitope Φ, epitope Quaternary and epitope V to the corresponding antibodies (in words) |
| --- | --- |
| B1 | able to well bind |
| B2 | able to well bind |

same assay, conditions: epitope Φ

| Molecule | ELISA binding amount, Epitope Φ, RSV pre-F antibody (3C12) |
| --- | --- |
| B1 | 3306 ng/mL |
| B2 | 3068 ng/mL |
| B3 | 521 ng/mL |
| B4 | 8589 ng/mL |
| B5 | 5210 ng/mL |
| B6 | 838 ng/mL |
| B7 | 9445 ng/mL |

same assay, conditions: epitope Φ, antibody 3C12; relative to PC-RSV-064

| Molecule | Binding amount to antibody/binding amount of PC-RSV-064 to antibody, Epitope Φ |
| --- | --- |
| B1 | 1.19 |
| B2 | 1.11 |
| B3 | 0.19 |
| B4 | 3.10 |
| B5 | 1.88 |
| B6 | 0.30 |
| B7 | 3.41 |

test system: RSV pre-F antibody (7H11); assay: ELISA binding of RSV F antigen mutants, epitope Quaternary; conditions: not given
Method: as §1, §2, §3, §4, §5

| Molecule | ELISA binding amount, Epitope Quaternary, RSV pre-F antibody (7H11) |
| --- | --- |
| B1 | 2873 ng/mL |
| B2 | 3722 ng/mL |
| B3 | 29 ng/mL |
| B4 | 4317 ng/mL |
| B5 | 6346 ng/mL |
| B6 | 39 ng/mL |
| B7 | 922 ng/mL |

same assay, conditions: antibody 7H11, relative to PC-RSV-064

| Molecule | Binding amount to antibody/binding amount of PC-RSV-064 to antibody, Epitope Quaternary |
| --- | --- |
| B1 | 0.80 |
| B2 | 1.03 |
| B3 | 0.01 |
| B4 | 1.20 |
| B5 | 1.76 |
| B6 | 0.01 |
| B7 | 0.26 |

test system: RSV F antibody (11A9); assay: ELISA binding of RSV F antigen mutants, epitope II; conditions: not given
Method: as §1, §2, §3, §4, §5

| Molecule | ELISA binding amount, Epitope II, RSV F antibody (11A9) |
| --- | --- |
| B1 | 2255 ng/mL |
| B2 | 2474 ng/mL |
| B3 | 203 ng/mL |
| B4 | 3856 ng/mL |
| B5 | 2823 ng/mL |
| B6 | 336 ng/mL |
| B7 | 4610 ng/mL |

same assay, conditions: antibody 11A9, relative to PC-RSV-064

| Molecule | Binding amount to antibody/binding amount of PC-RSV-064 to antibody, Epitope II |
| --- | --- |
| B1 | 1.07 |
| B2 | 1.18 |
| B3 | 0.10 |
| B4 | 1.84 |
| B5 | 1.34 |
| B6 | 0.16 |
| B7 | 2.20 |

test system: RSV F antibody (4B9); assay: ELISA binding of RSV F antigen mutants, epitope III; conditions: not given
Method: as §1, §2, §3, §4, §5

| Molecule | ELISA binding amount, Epitope III, RSV F antibody (4B9) |
| --- | --- |
| B1 | 4655 ng/mL |
| B2 | 3494 ng/mL |
| B3 | 358 ng/mL |
| B4 | 7298 ng/mL |
| B5 | 4779 ng/mL |
| B6 | 534 ng/mL |
| B7 | 6529 ng/mL |

same assay, conditions: antibody 4B9, relative to PC-RSV-064

| Molecule | Binding amount to antibody/binding amount of PC-RSV-064 to antibody, Epitope III |
| --- | --- |
| B1 | 1.62 |
| B2 | 1.22 |
| B3 | 0.12 |
| B4 | 2.54 |
| B5 | 1.67 |
| B6 | 0.19 |
| B7 | 2.28 |

test system: RSV pre-F antibody (7E11); assay: ELISA binding of RSV F antigen mutants, epitope V; conditions: not given
Method: as §1, §2, §3, §4, §5

| Molecule | ELISA binding amount, Epitope V, RSV F antibody (7E11) |
| --- | --- |
| B1 | 217 ng/mL |
| B2 | 923 ng/mL |
| B3 | 43 ng/mL |
| B4 | 91 ng/mL |
| B5 | 129 ng/mL |
| B6 | 139 ng/mL |
| B7 | 223 ng/mL |

same assay, conditions: antibody 7E11, relative to PC-RSV-064

| Molecule | Binding amount to antibody/binding amount of PC-RSV-064 to antibody, Epitope V |
| --- | --- |
| B1 | 0.68 |
| B2 | 2.88 |
| B3 | 0.13 |
| B4 | 0.28 |
| B5 | 0.40 |
| B6 | 0.43 |
| B7 | 0.69 |
